Among the data in patent US20090054631A1 are fold increase of binding on B cells stimulated with anti-CD40 and IL-4 against resting B cells values, retold here.

In this experiment the target is receptor for UNQ733 on the surface of lymphoma cell lines and B cells (unidentified) (human). The experiment can be described thus: flow cytometry on purified human peripheral blood B cells, 48 h with anti-CD40 and rIL-4. In general terms: In flow cytometry, cells or beads pass a laser one at a time.

Regarding His8-tagged UNQ733 polypeptide (ligand), the fold increase of binding on B cells stimulated with anti-CD40 and IL-4 against resting B cells fell in the range of 2 to 5 fold.
